A word on the Km: it is the substrate concentration at which the rate is half of its maximum.

Consider one protein from patent US6107069A, “Recombinant kynurenine-3-hydroxylase enzyme and process for its preparation” (priority 1996, dated 2000).

Substrate in this series: Nc1ccccc1C(=O)C[C@H](N)C(=O)O
Kind of series: cells, lysate or membranes named. The conditions noted are these: other: L-kynurenine 1 to 4,000 μM, OD600 = 0.6, IPTG 1 mM, 2 h at 37° C.

B1: human recombinant kyn-3-OHase (Homo sapiens) (protein)
chain: MDSSVIQRKKVAVIGGGLVGSLQACFLAKRNFQIDVYEAREDTRVATFTRGRSINLALSHRGRQALKAVGLEDQIVSQGIPMRARMIHSLSGKKSAIPYGTKSQYILSVSRENLNKDLLTAAEKYPNVKMHFNHRLLKCNPEEGMITVLGSDKVPKDVTCDLIVGCDGAYSTVRSHLMKKPRFDYSQQYIPHGYMELTIPPKNGDYAMEPNYLHIWPRNTFMMIALPNMNKSFTCTLFMPFEEFEKLLTSNDVVDFFQKYFPDAIPLIGEKLLVQDFFLLPAQPMISVKCSSFHFKSHCVLLGDAAHAIVPFFGQGMNAGFEDCLVFDELMDKFSNDLSLCLPVFSRLRIPDDHAISDLSMYNYIEMRAHVNSSWFIFQKNMERFLHAIMPSTFIPLYTMVTFSRIRYHEAVQRWHWQKKVINKGLFFLGSLIAISSTYLLIHYMSPRSFLCLRRPWNWIAHFRNTTCFPAKAVDSLEQISNLISR
For the protein B1, the Km came out at 57 ± 2 µM and the Vmax is recorded as 10.5±0.11 nmol/hour.mg of protein.
